Experimental data: paper PMC3448795 (2012)

Key:
[1] = biological target: T1, TRTK12 (CapZ peptide 265-276) (Homo sapiens, not fully specified); test: NMR line shape analysis
T1 chain: Ac-TRTKIDWNKILS-NH2

[2] = biological target: T2, HDM4(25-47) (Homo sapiens, not fully specified; Ca2+; peptide N-acetylated, C-amidated); test: NMR line shape analysis
T2 chain: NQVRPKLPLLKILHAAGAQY

[3] = biological target: T3, HDM2(25-47) (Homo sapiens, not fully specified; Ca2+; peptide N-acetylated, C-amidated); test: NMR line shape analysis
T3 chain: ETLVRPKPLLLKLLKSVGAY

[4] = biological target: T4, NDR(62-87), site 2 (Homo sapiens, not fully specified; Ca2+; peptide N-acetylated, C-amidated); test: ITC
T4 chain: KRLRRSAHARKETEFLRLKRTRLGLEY

[5] = biological target: T5, NDR(62-87), site 1 (Homo sapiens, not fully specified; Ca2+; peptide N-acetylated, C-amidated); test: ITC
T5 chain: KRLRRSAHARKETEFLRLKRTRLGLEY

[6] = biological target: T1, TRTK12 (CapZ peptide 265-276); test: ITC
[7] = biological target: T2, HDM4(25-47); test: ITC
[8] = biological target: T3, HDM2(25-47); test: ITC

Kd [1]: 1000 nM
Kd [2]: 1000 nM
Kd [3]: 100 nM
Kd [4]: 2000 nM
Kd [5]: 400 nM
Kd [6]: 2000 nM
Kd [7]: 70 nM
Kd [8]: 500 nM
B1: S100B (protein)
chain: SELEKAMVALIDVFHQYSGREGDKHKLKKSELKELINNELSHFLEEIKEQEVVDKVMETLDNDGDGECDFQEFMAFVAMVTTACHEFFEHE
